T1: CD19 (human, UniProt P15391 20-556)
T1 construct: whole, on cells; also called CD19 on NALM-6 cells
T1 sequence (looked up): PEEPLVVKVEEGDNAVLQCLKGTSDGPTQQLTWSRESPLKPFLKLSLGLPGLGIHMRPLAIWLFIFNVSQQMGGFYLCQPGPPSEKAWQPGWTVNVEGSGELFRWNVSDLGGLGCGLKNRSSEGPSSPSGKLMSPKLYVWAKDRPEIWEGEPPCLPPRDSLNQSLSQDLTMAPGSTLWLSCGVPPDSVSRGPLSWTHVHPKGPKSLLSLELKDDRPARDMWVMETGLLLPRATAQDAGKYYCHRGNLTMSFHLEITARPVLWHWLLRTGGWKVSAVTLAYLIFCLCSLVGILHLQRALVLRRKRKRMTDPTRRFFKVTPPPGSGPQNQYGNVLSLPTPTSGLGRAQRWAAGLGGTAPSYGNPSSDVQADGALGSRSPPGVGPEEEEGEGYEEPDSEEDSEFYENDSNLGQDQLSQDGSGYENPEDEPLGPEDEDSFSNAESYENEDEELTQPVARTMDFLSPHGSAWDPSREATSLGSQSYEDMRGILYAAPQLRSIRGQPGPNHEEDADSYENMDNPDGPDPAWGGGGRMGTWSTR

B1: anti-CD19×anti-CD3 (VH2/VL2) (SEQ ID NO.:180) (bispecific antibody)
chain: DIQLTQSPASLAVSLGQRATISCKASQSVDYDGDSYLNWYQQIPGQPPKLLIYDASNLVSGIPPRFSGSGSGTDFTLNIHPVEKVDAATYHCQQSTEDPWTFGGGTKLEIKGGGGSGGGGSGGGGSQVQLQQSGAELVRPGSSVKISCKASGYAFSSYWMNWVKQRPGQGLEWIGQIWPGDGDTNYNGKFKGKATLTADESSSTAYMQLSSLASEDSAVYFCARRETTTVGRYYYAMDYWGQGTTVTVSSGGGGSDVQLVQSGAEVKKPGASVKVSCKASGYTATRYTMHWVRQAPGQGLEWIGYINPSRGYTNYAQKLQGRVTMTTDTSTSTAYMELSSLRSEDTATYYCARYYDDHYCLDYWGQGTTVTVSSGEGTSTGSGGSGGSGGADDIVLTQSPATLSLSPGERATLSCRASQSVSYMNWYQQKPGKAPKRWIYDTSKVASGVPARFSGSGSGTDYSLTINSLEAEDAATYYCQQWSSNPLTFGGGTKVEIK
notes: As m4: bispecific single chain, His-tagged; also called pEF anti-CD19×anti-CD3 (VH2/VL2)
B2: anti-CD19×anti-CD3 (VH2/VL1) (SEQ ID NO.:178) (bispecific antibody)
chain: DIQLTQSPASLAVSLGQRATISCKASQSVDYDGDSYLNWYQQIPGQPPKLLIYDASNLVSGIPPRFSGSGSGTDFTLNIHPVEKVDAATYHCQQSTEDPWTFGGGTKLEIKGGGGSGGGGSGGGGSQVQLQQSGAELVRPGSSVKISCKASGYAFSSYWMNWVKQRPGQGLEWIGQIWPGDGDTNYNGKFKGKATLTADESSSTAYMQLSSLASEDSAVYFCARRETTTVGRYYYAMDYWGQGTTVTVSSGGGGSDVQLVQSGAEVKKPGASVKVSCKASGYTATRYTMHWVRQAPGQGLEWIGYINPSRGYTNYAQKLQGRVTMTTDTSTSTAYMELSSLRSEDTATYYCARYYDDHYCLDYWGQGTTVTVSSGEGTSTGSGGSGGSGGADDIQMTQSPSSLSASVGDRVTITCRASQSVSYMNWYQQKPGKAPKRWIYDTSKVASGVPARFSGSGSGTDYSLTINSLEAEDAATYYCQQWSSNPLTFGGGTKVEIK
notes: also called pEF anti-CD19×anti-CD3 (VH2/VL1)
B3: anti-CD19×anti-CD3 (VH2/VL3) (SEQ ID NO.:182) (bispecific antibody)
chain: DIQLTQSPASLAVSLGQRATISCKASQSVDYDGDSYLNWYQQIPGQPPKLLIYDASNLVSGIPPRFSGSGSGTDFTLNIHPVEKVDAATYHCQQSTEDPWTFGGGTKLEIKGGGGSGGGGSGGGGSQVQLQQSGAELVRPGSSVKISCKASGYAFSSYWMNWVKQRPGQGLEWIGQIWPGDGDTNYNGKFKGKATLTADESSSTAYMQLSSLASEDSAVYFCARRETTTVGRYYYAMDYWGQGTTVTVSSGGGGSDVQLVQSGAEVKKPGASVKVSCKASGYTATRYTMHWVRQAPGQGLEWIGYINPSRGYTNYAQKLQGRVTMTTDTSTSTAYMELSSLRSEDTATYYCARYYDDHYCLDYWGQGTTVTVSSGEGTSTGSGGSGGSGGADDIVLTQSPATLSLSPGERATLTCRASSSVSYMNWYQQKPGKAPKRWIYDTSKVASGVPARFSGSGSGTDYSLTINSLEAEDAATYYCQQWSSNPLTFGGGTKVEIK
notes: As m4: bispecific single chain, His-tagged; also called pEF anti-CD19×anti-CD3 (VH2/VL3)
B4: anti-CD19×anti-CD3 (VH3/VL2) (SEQ ID NO.:186) (bispecific antibody)
chain: DIQLTQSPASLAVSLGQRATISCKASQSVDYDGDSYLNWYQQIPGQPPKLLIYDASNLVSGIPPRFSGSGSGTDFTLNIHPVEKVDAATYHCQQSTEDPWTFGGGTKLEIKGGGGSGGGGSGGGGSQVQLQQSGAELVRPGSSVKISCKASGYAFSSYWMNWVKQRPGQGLEWIGQIWPGDGDTNYNGKFKGKATLTADESSSTAYMQLSSLASEDSAVYFCARRETTTVGRYYYAMDYWGQGTTVTVSSGGGGSDVQLVQSGAEVKKPGASVKVSCKASGYTATRYTMHWVRQAPGQGLEWIGYINPSRGYTNYAQKLQGRVTMTTDTSTSTAYLQMNSLKTEDTAVYYCARYYDDHYCLDYWGQGTTVTVSSGEGTSTGSGGSGGSGGADDIVLTQSPATLSLSPGERATLSCRASQSVSYMNWYQQKPGKAPKRWIYDTSKVASGVPARFSGSGSGTDYSLTINSLEAEDAATYYCQQWSSNPLTFGGGTKVEIK
notes: As m4: bispecific single chain, His-tagged; also called pEF anti-CD19×anti-CD3 (VH3/VL2)
B5: anti-CD19×anti-CD3 (VH3/VL3) (SEQ ID NO.:188) (bispecific antibody)
chain: DIQLTQSPASLAVSLGQRATISCKASQSVDYDGDSYLNWYQQIPGQPPKLLIYDASNLVSGIPPRFSGSGSGTDFTLNIHPVEKVDAATYHCQQSTEDPWTFGGGTKLEIKGGGGSGGGGSGGGGSQVQLQQSGAELVRPGSSVKISCKASGYAFSSYWMNWVKQRPGQGLEWIGQIWPGDGDTNYNGKFKGKATLTADESSSTAYMQLSSLASEDSAVYFCARRETTTVGRYYYAMDYWGQGTTVTVSSGGGGSDVQLVQSGAEVKKPGASVKVSCKASGYTATRYTMHWVRQAPGQGLEWIGYINPSRGYTNYAQKLQGRVTMTTDTSTSTAYLQMNSLKTEDTAVYYCARYYDDHYCLDYWGQGTTVTVSSGEGTSTGSGGSGGSGGADDIVLTQSPATLSLSPGERATLTCRASSSVSYMNWYQQKPGKAPKRWIYDTSKVASGVPARFSGSGSGTDYSLTINSLEAEDAATYYCQQWSSNPLTFGGGTKVEIK
notes: As m4: bispecific single chain, His-tagged; also called pEF anti-CD19×anti-CD3 (VH3/VL3)
B6: anti-CD19×anti-CD3 (VH5/VL2) (SEQ ID NO.:192) (bispecific antibody)
chain: DIQLTQSPASLAVSLGQRATISCKASQSVDYDGDSYLNWYQQIPGQPPKLLIYDASNLVSGIPPRFSGSGSGTDFTLNIHPVEKVDAATYHCQQSTEDPWTFGGGTKLEIKGGGGSGGGGSGGGGSQVQLQQSGAELVRPGSSVKISCKASGYAFSSYWMNWVKQRPGQGLEWIGQIWPGDGDTNYNGKFKGKATLTADESSSTAYMQLSSLASEDSAVYFCARRETTTVGRYYYAMDYWGQGTTVTVSSGGGGSDVQLVQSGAEVKKPGASVKVSCKASGYTFTRYTMHWVRQAPGQGLEWIGYINPSRGYTNYADSVKGRFTITTDKSTSTAYMELSSLRSEDTATYYCARYYDDHYCLDYWGQGTTVTVSSGEGTSTGSGGSGGSGGADDIVLTQSPATLSLSPGERATLSCRASQSVSYMNWYQQKPGKAPKRWIYDTSKVASGVPARFSGSGSGTDYSLTINSLEAEDAATYYCQQWSSNPLTFGGGTKVEIK
notes: As m4: bispecific single chain, His-tagged; also called pEF anti-CD19×anti-CD3 (VH5/VL2); anti-CD3 (VH5/VK2)
B7: anti-CD19×anti-CD3 (VH5/VL3) (SEQ ID NO.:194) (bispecific antibody)
chain: DIQLTQSPASLAVSLGQRATISCKASQSVDYDGDSYLNWYQQIPGQPPKLLIYDASNLVSGIPPRFSGSGSGTDFTLNIHPVEKVDAATYHCQQSTEDPWTFGGGTKLEIKGGGGSGGGGSGGGGSQVQLQQSGAELVRPGSSVKISCKASGYAFSSYWMNWVKQRPGQGLEWIGQIWPGDGDTNYNGKFKGKATLTADESSSTAYMQLSSLASEDSAVYFCARRETTTVGRYYYAMDYWGQGTTVTVSSGGGGSDVQLVQSGAEVKKPGASVKVSCKASGYTFTRYTMHWVRQAPGQGLEWIGYINPSRGYTNYADSVKGRFTITTDKSTSTAYMELSSLRSEDTATYYCARYYDDHYCLDYWGQGTTVTVSSGEGTSTGSGGSGGSGGADDIVLTQSPATLSLSPGERATLTCRASSSVSYMNWYQQKPGKAPKRWIYDTSKVASGVPARFSGSGSGTDYSLTINSLEAEDAATYYCQQWSSNPLTFGGGTKVEIK
notes: As m4: bispecific single chain, His-tagged; also called pEF anti-CD19×anti-CD3 (VH5/VL3)

Columns and labels:
human CD3 [1] = biological target: T2, human CD3 (human, UniProt P07766 23-207; P04234 22-171; P09693 23-182); test: FACS, second experiment, crude supernatant on CD3-enriched PBMCs
T2 construct: whole, on cells; also called CD3 antigen; human CD3 complex
Experimental: (§1) In order to analyze the binding efficacy of the deimmunized constructs to CD3 and CD19 a FACS-based assay was performed. Initially, crude supernatants were tested for binding on CD3-enriched PBMCs or CD19-positive NALM-6 cells. Cells were incubated with non-diluted supernatants for 30 minutes at 8° C. Upon two wash steps the cells were labeled with an anti-His antibody (Qiagen) under the same conditions. After additional wash steps binding of the constructs was detected with a FITC-conjugated sheep anti-mouse antibody (Sigma). Cells were analyzed with a FACS Calibur cytometer (B&D). As controls supernatants of anti-CD19×anti-CD3 and GFP-transfected cells were included. […] The positive control, which was a non-deimmunized anti-CD19×anti-CD3 construct reached a MFI of around 60 showing that the deimmunized constructs comprising anti-CD3 (VH5/VL1) (SEQ ID NO.:190), anti-CD3 (VH5/VL2) (SEQ ID NO.:192), anti-CD3 (VH5/VL3) (SEQ ID NO.:194), anti-CD3 (VH7/VL1) (SEQ ID NO.:196), anti-CD3 (VH7/VL2) (SEQ ID NO.:198) and anti-CD3 (VH7/VL3) (SEQ ID NO.:200) bound CD3 with extremely high efficacy.

human CD3 [2] = biological target: T2, human CD3; test: FACS on CD3-enriched PBMCs
CD19 = biological target: T1, CD19; test: FACS, crude supernatant on CD19-positive NALM-6 cells; negative control MFI ca. 3
Experimental: as §1
The FACS-based binding assay was also carried out for CD19. In this experiment CD19 and a secondary antibody was as a negative control. In this experiment, all assayed constructs achieved a MFI of at least 80 while the MFI of the negative control was ca. 3.

human CD3 [3] = biological target: T2, human CD3; test: FACS, non-diluted crude supernatant on CD3-enriched PBMCs; anti-His + FITC anti-mouse
Experimental: as §1

Binder	MFI (human CD3 [1]) [MFI]	binding result (human CD3 [2])	MFI (CD19) [MFI]	MFI (human CD3 [3]) [MFI]	fold over the negative control (secondary antibody only, MFI ca. 3.5) (human CD3 [3]) [fold]
B1	~6	no binding (tested: non-diluted supernatant)	≥ 80		
B2	~6	no binding (tested: non-diluted supernatant)	≥ 80		
B3	~6	no binding (tested: non-diluted supernatant)	≥ 80		
B4	~6	no binding (tested: non-diluted supernatant)	≥ 80		
B5	~6	no binding (tested: non-diluted supernatant)	≥ 80		
B6			≥ 80	≥ 90	~25
B7			≥ 80	≥ 90	~25

— patent publication US20090022738A1 (MICROMET, published 2009)
